The source of these data is IntAct's records for PubMed 24606901.

B1: Succinate dehydrogenase [ubiquinone] iron-sulfur subunit, mitochondrial (Homo sapiens), P21912 (parent)
chain: MAAVVALSLRRRLPATTLGGACLQASRGAQTAAATAPRIKKFAIYRWDPDKAGDKPHMQTYEVDLNKCGPMVLDALIKIKNEVDSTLTFRRSCREGICGSCAMNINGGNTLACTRRIDTNLNKVSKIYPLPHMYVIKDLVPDLSNFYAQYKSIEPYLKKKDESQEGKQQYLQSIEEREKLDGLYECILCACCSTSCPSYWWNGDKYLGPAVLMQAYRWMIDSRDDFTEERLAKLQDPFSLYRCHTIMNCTRTCPKGLNPGKAIAEIKKMMATYKEKKASV
partner: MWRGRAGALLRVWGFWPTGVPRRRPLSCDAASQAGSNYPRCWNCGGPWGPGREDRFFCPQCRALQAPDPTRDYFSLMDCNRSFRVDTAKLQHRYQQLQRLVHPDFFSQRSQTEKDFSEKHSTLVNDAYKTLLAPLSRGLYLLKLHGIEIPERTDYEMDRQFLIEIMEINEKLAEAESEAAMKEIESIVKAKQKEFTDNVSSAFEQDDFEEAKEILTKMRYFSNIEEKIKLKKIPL

Variants of B1 are the subject of one assay. To be noted: with hsc20_human HSCB.
In the case of MAAVVALSLRRRLPATTLGGACLQASRGAQTAAATAPRIKKFAIYRWDPDKAGDKPHMQTYEVDLNKCGPMVLDALIKIKNEVDSTLTFRRSCREGICGSCAMNINGGNTLACTRRIDTNLNKVSKIYPLPHMYVIKDLVPDLSNFYAQYKSIEPYLKKKDESQEGKQQYLQSIEEREKLDGLYECILCACCSTSCPSYWWNGDKYLGPAVLMQAYRWMIDSRDDFTEERLAKLQDPFSLYRCHTIMNCTRTCPKGLNPGKAIAEIKKMMATYKEAAASV [K276A;K277A], the “effect of a mutation on the interaction” value was “disrupting interaction”. On the same count and under the same terms, next, MAAVVALSLRRRLPATTLGGACLQASRGAQTAAATAPRIKKFAIYRWDPDKAGDKPHMQTYEVDLNKCGPMVLDALIKIKNEVDSTLTFRRSCREGICGSCAMNINGGNTLACTRRIDTNLNKVSKIYPLPHMYVIKDLVPDLSNFYAQYKSIEPYLKKKDESQEGKQQYLQSIEEREKLDGLYECILCACCSTSCPSYWWNGDKYLGPAVLMQAYRWMIDSRDDFTEERLAKLQDPFSLYRCHTIMNCTRTCPKGLNPGKAIAEIAAMMATYKEKKASV [K267A;K268A]: “disrupting interaction strength”.

In another assay the parent is B1. The settings on record: with hsc20_human HSCB. This is another data set of the same source.
As to MAAVVALSLRRRLPATTLGGACLQASRGAQTAAATAPRIKKFAIYRWDPDKAGDKPHMQTYEVDLNKCGPMVLDALIKIKNEVDSTLTFRRSCREGICGSCAMNINGGNTLACTRRIDTNLNKVSKIYPLPHMYVIKDLVPDLSNFYAQYKSIEPYLKKKDESQEGKQQYLQSIEEREKLDGLYECILCACCSTSCPSYWWNGDKYLGPAVLMQAYRWMIDSRDDFTEERLAKLQDPFSAYRCHTIMNCTRTCPKGLNPGKAIAEIKKMMATYKEKKASV [L240A], the “effect of a mutation on the interaction” value was “disrupting interaction strength”.

In the next assay the parent is B1. The settings on record: with hsc20_human HSCB. The source holds these as a separate data set.
MAAVVALSLRRRLPATTLGGACLQASRGAQTAAATAPRIKKFAAYRWDPDKAGDKPHMQTYEVDLNKCGPMVLDALIKIKNEVDSTLTFRRSCREGICGSCAMNINGGNTLACTRRIDTNLNKVSKIYPLPHMYVIKDLVPDLSNFYAQYKSIEPYLKKKDESQEGKQQYLQSIEEREKLDGLYECILCACCSTSCPSYWWNGDKYLGPAVLMQAYRWMIDSRDDFTEERLAKLQDPFSLYRCHTIMNCTRTCPKGLNPGKAIAEIKKMMATYKEKKASV [I44A]: the “effect of a mutation on the interaction” value is on record as “disrupting interaction strength”.
